Paper PMC9190123 (Molecular pharmaceutics, 2009)
Where two headings read alike, the source gives them in different places. Numbered stars: 1 amine (or outer) side, 2 acyl side, 3 side chain; on linkers, the order of the positions; unused ones are H or OH. Square brackets hold non-standard residues; d marks the D form. Side chains are listed from the residue outwards. Peptide text beside a SMILES is read from it. * marks the point of attachment. X1 = N[C@@H](CN*)C(=O)N[C@@H](CC(=O)O)C(=O)N[C@@H](CS)C(=O)O; γGlu = O=C(O)[C@H](CCC(=O)[*:2])N[*:1]; PEG6 = NCCOCCOCCOCCOCCOCCOCCC(=O)O; Dap = NC[C@H](N)C(=O)O; Aoc = NCCCCCCCC(=O)O; CO = O=C([*:1])[*:2]

Tests used:
LNCaP tumor xenografts = assay type: in vivo, athymic nu/nu mice; settings: for tumor-specific accumulation by whole-body radioimaging: 4 h after ip injection; for Tumor:Tissue blood / Tumor:Tissue heart / Tumor:Tissue liver / Tumor:Tissue lung / Tumor:Tissue muscle / Tumor:Tissue skin / Tumor:Tissue spleen: mouse, in vivo, ip; for accumulation in PSMA-positive tumors by γ-counting (in words): tissue biodistribution, 4 h
[1] = target: PSMA (PSMA-expressing LNCaP cells) (Homo sapiens, UniProt Q04609); assay: LNCaP cell binding study; settings: for affinity for PSMA / LNCaP cells (in words): LNCaP cells in culture; for competitive inhibition of binding by excess PMPA: LNCaP cells, 100-fold excess PMPA; for Kd: PSMA-positive LNCaP cells in culture, 1 h at 37 °C
Sequence of PSMA (PSMA-expressing LNCaP cells) (Q04609 whole entry): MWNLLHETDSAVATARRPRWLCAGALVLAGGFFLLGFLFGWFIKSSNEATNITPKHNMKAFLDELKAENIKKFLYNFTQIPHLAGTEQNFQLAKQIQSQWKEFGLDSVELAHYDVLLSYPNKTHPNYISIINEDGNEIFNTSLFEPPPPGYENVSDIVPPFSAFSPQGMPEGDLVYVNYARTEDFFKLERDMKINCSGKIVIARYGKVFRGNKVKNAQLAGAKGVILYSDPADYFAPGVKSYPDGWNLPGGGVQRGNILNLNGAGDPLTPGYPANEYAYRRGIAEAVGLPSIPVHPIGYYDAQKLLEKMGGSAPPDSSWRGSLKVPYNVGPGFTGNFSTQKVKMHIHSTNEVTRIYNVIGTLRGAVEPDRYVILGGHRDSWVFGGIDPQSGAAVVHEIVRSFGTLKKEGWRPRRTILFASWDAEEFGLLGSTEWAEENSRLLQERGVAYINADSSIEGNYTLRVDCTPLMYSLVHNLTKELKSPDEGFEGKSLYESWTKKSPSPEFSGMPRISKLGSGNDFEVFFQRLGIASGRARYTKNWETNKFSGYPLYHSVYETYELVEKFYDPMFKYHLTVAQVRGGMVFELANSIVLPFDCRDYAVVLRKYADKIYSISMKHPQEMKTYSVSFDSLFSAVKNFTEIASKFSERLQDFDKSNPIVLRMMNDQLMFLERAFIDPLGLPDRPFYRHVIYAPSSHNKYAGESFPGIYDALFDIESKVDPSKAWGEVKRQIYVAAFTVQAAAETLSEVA

[2] = assay type: in vivo, athymic nu/nu mice; settings: mouse, ip
[3] = test system: PSMA-negative human tumor xenografts; settings: two PSMA-negative human tumor xenografts; cited from earlier work
[4] = male, athymic nu/nu, in vivo, 67 nmol, total radioactivity, tumor uptake, average % ID/g tissue

Structure (SMILES)	tumor-specific accumulation by whole-body radioimaging (LNCaP tumor xenografts; radioimaging)	internalization by LNCaP cells ([1]; 1 h at 4 °C vs 37 °C)	affinity for PSMA / LNCaP cells (in words) [1]	competitive inhibition of binding by excess PMPA [1]	Kd [1]	tissue uptake at 4 h [2, 4]	tissue uptake at 4 h ([2]; kidney, 67 nmol, % ID/g kidney, kidney, 4 h after ip injection)	LNCaP tumor uptake with coinjection of excess PMPA (LNCaP tumor xenografts; competition with 100-fold excess PMPA, radioimaging)	Tumor:Tissue blood (LNCaP tumor xenografts)	Tumor:Tissue heart (LNCaP tumor xenografts)	Tumor:Tissue liver (LNCaP tumor xenografts)	Tumor:Tissue lung (LNCaP tumor xenografts)	Tumor:Tissue muscle (LNCaP tumor xenografts)	Tumor:Tissue skin (LNCaP tumor xenografts)	Tumor:Tissue spleen (LNCaP tumor xenografts)	uptake in PSMA-negative tumors [3]	tissue uptake at 4 h ([2]; in vivo, % ID/g kidney)	accumulation in PSMA-positive tumors by γ-counting (in words) (LNCaP tumor xenografts)
N[C@@H](CNC(=O)[C@H](Cc1ccccc1)NC(=O)[C@H](Cc1ccccc1)NC(=O)CNC(=O)[C@H](CCC(=O)O)NC(=O)[C@H](Cc1ccccc1)NC(=O)CC[C@H](NC(=O)N[C@@H](CCC(=O)O)C(=O)O)C(=O)O)C(=O)N[C@@H](CC(=O)O)C(=O)N[C@@H](CS)C(=O)O [compound 7] ({Glu-CO-γGlu}-FEGFF-X1)	accumulated predominantly in the PSMA-positive LNCaP tumors																	
N[C@@H](CNC(=O)[C@H](Cc1ccccc1)NC(=O)[C@H](Cc1ccccc1)NC(=O)CCCCCCCNC(=O)CC[C@H](NC(=O)N[C@@H](CCC(=O)O)C(=O)O)C(=O)O)C(=O)N[C@@H](CC(=O)O)C(=O)N[C@@H](CS)C(=O)O [compound 5] (H-[Dap]([Phe-Phe-Aoc-γGlu-CO-Glu])-Asp-Cys-OH)	accumulated predominantly in the PSMA-positive LNCaP tumors	internalization of the DUPA conjugate at physiological temperature	most avid interaction	nearly quantitative competition	0.0138 ± 0.0039 µM	9.8 ± 2.4 %ID/g	37.8 %ID/g	eliminated LNCaP tumor uptake	36.4	80.9	20.2	35.2	78.9	30.7	18.4	no uptake		
N[C@@H](CNC(=O)[C@H](CCC(=O)O)NC(=O)[C@H](Cc1ccccc1)NC(=O)CCCCCCCNC(=O)CC[C@H](NC(=O)N[C@@H](CCC(=O)O)C(=O)O)C(=O)O)C(=O)N[C@@H](CC(=O)O)C(=O)N[C@@H](CS)C(=O)O [compound 6] (H-[Dap]([Glu-Phe-Aoc-γGlu-CO-Glu])-Asp-Cys-OH)	accumulated predominantly in the PSMA-positive LNCaP tumors		somewhat lower affinities	nearly quantitative competition	0.031 µM	9.8 ± 2.4 %ID/g			51.4	93.3	11.6	18.9	74.2	28.7	4.5		42.9 %ID/g	
N[C@@H](CNC(=O)CC[C@H](NC(=O)N[C@@H](CCC(=O)O)C(=O)O)C(=O)O)C(=O)N[C@@H](CC(=O)O)C(=O)N[C@@H](CS)C(=O)O [compound 3] (H-[Dap]([γGlu-CO-Glu])-Asp-Cys-OH)	not observed		weak affinity		0.176 µM													did not accumulate
N[C@@H](CNC(=O)[C@H](Cc1ccccc1)NC(=O)CCOCCOCCOCCOCCOCCOCCNC(=O)CC[C@H](NC(=O)N[C@@H](CCC(=O)O)C(=O)O)C(=O)O)C(=O)N[C@@H](CC(=O)O)C(=O)N[C@@H](CS)C(=O)O [compound 8] (H-[Dap]([Phe-PEG6-γGlu-CO-Glu])-Asp-Cys-OH)	not observed		weak affinity		0.338 µM													did not accumulate
N[C@@H](CNC(=O)[C@H](Cc1ccccc1)NC(=O)[C@H](CCC(=O)O)NC(=O)CC[C@H](NC(=O)N[C@@H](CCC(=O)O)C(=O)O)C(=O)O)C(=O)N[C@@H](CC(=O)O)C(=O)N[C@@H](CS)C(=O)O [compound 4] (H-[Dap]([Phe-Glu-γGlu-CO-Glu])-Asp-Cys-OH)	accumulated predominantly in the PSMA-positive LNCaP tumors		somewhat lower affinities	nearly quantitative competition	0.06 µM	9.8 ± 2.4 %ID/g			91.7	112.2	62.9	101.8	115.1	92.3	66.7		3.4 %ID/g	
